The test has as its target CD3 on non-edited CD3+ T cells of a human donor (human) (UniProt P07766). As to the kind of experiment: cell-based or functional assay.

CD3 on non-edited CD3+ T cells of a human donor (human), sequence (P07766 23-207, chain 1 of 3): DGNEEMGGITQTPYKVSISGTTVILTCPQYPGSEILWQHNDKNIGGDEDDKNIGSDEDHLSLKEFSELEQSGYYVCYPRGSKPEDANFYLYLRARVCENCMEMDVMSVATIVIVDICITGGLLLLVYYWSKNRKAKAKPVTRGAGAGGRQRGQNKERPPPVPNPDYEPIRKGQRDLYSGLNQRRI
CD3 on non-edited CD3+ T cells of a human donor (human), sequence (P09693 23-182, chain 2 of 3, further chain): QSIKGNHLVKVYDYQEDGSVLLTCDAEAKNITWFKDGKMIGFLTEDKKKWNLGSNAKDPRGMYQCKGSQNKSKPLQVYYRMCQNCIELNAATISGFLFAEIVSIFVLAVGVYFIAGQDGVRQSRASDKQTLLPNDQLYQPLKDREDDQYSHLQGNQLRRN
CD3 on non-edited CD3+ T cells of a human donor (human), sequence (P04234 22-171, chain 3 of 3, further chain): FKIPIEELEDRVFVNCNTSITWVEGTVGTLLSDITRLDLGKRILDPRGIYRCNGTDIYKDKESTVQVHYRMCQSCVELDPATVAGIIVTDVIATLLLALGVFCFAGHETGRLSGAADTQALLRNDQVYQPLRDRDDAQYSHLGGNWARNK

For the substance “foralumab biosimilar (Creative Biolabs) (antibody)”, the percent killing in a complement-dependent cytotoxicity (CDC) assay on non-edited CD3+ T cells, 24 h, 30% human serum, antibody at 30-4000 ng/ml was 65%.

The values above are taken from patent publication US20220273720A1.
